We go through 1 molecule from article PMC4319893, “Targeting Protein-Protein Interactions with Trimeric Ligands: High Affinity Inhibitors of the MAGUK Protein Family” (PLoS ONE, 2015).

The assay concerns the target PSD-95 PDZ3 (human). The experiment in a line: fluorescence polarisation; truncation study of CRIPT C-terminal peptides on PSD-95 PDZ3 and PSD-95 FL (S1 Table); probe not told. In general terms: Polarisation of emitted light reports the rotation of a fluorescent probe.

B1: IETAV (peptide)
peptide: IETAV
B1: the affinity was greater than 50 µM.
